# Tests used:
# Assay type in all cases: cell-based, human
# [1] = test system: AML cell lines; test: Apoptosis (AnnexinV/7AAD) in AML cell lines; details: 50 μg/ml, forty-eight hours, vs IgG control
# Description: FIG. 9. […] Forty-eight hours after IgG control vs. @E7 antibody treatment (50 μg/ml) of AML cell lines apoptosis was evaluated by AnnexinV/7AAD staining. * indicates P<0.05, ** indicates P<0.01.
# For the evaluation of apoptosis, cells were stained with Annexin V and 7-AAD as previously described^16, 21 For the evaluation of cell proliferation, AML cell lines were incubated with BrdU, fixed, permeabilized and stained with APC-conjugated anti-BrdU antibody, according to the instructions of the manufacturer (BD Biosciences) and as previously described^16, 21 The proliferating fraction of the cells (i.e., the BrdU positive cells) was evaluated with flow cytometry (LSRII, BD Biosciences). For cell differentiation analysis, cells were stained with an anti-CD11B antibody (BD Biosciences) and analyzed by flow cytometry.
# [2] = test system: THP-1 cells; test: Apoptosis (AnnexinV+ FACS), THP-1; details: anti-EGFL7 treatment
# Description: (§1) FIG. 24A-24G. EGFL7 prevents activation of NOTCH signaling in AML cells. (FIG. 24A) Overview of experiments using DLL4-FC and IgG-FC control coated plates to induce NOTCH activation. (FIG. 24B) THP-1 cells were pre-treated with 10 μM γ-secretase inhibitor (AVA), 100 μg/ml anti-EGFL7 antibody or 0.25 μM rEGFL7 for 30 min, then transferred to IgG-Fc or DLL4-Fc coated plates. After 4 h of incubation total RNA from THP-1 cells was extracted for qRT-PCR analysis of HES1 with β-ACTIN as internal control. ^###P<0.001 DLL4-FC vs IgG-FC; ***P<0.001 DLL4+AVA, DLL4+rEGFL7, and DLL4+anti-EGFL7 vs DLL4-FC. […] THP-1 cells were treated with the indicated concentration of anti-EGFL7 (@E7) then assessed for apoptosis using (FIG. 24D) AnnexinV+ staining and FACS; *P<0.05 (FIG. 24E) Immuno-blotting for PARP1 and Casp3 cleavage. (FIG. 24F) Cell differentiation was assessed by CD11B and CD14 staining 96-hours post anti-EGFL7 treatments; *P<0.05. (FIG. 24G) To determine whether activation of NOTCH by DLL4-Fc could be accentuated by anti-EGFL7 treatment, THP-1 cells were first treated with anti-EGFL7 (100 μg/ml) and then cultured on DLL4-FC or IgG-Fc coated plates and then assessed for apoptosis using AnnexinV+ staining and FACS. *P<0.05 DLL4-Fc and anti-EGFL7; vs DLL4-FC+anti-EGFL7. […]
# [3] = test system: PARP1 and CASP3 cleavage; test: PARP1 and Casp3 cleavage immunoblot, THP-1; details: anti-EGFL7 treatment, western blots
# Description: as §1
molecule,measurement,setting,value
"Parsatuzumab: Anti-human EGFL7 therapeutic antibody (Parsatuzumab) obtained from Creative Biolabs; blocking monoclonal antibody (antibody, chains of the INN, looked up, V domains shown) VH: EVQLVESGGGLVQPGGSLRLSCAASGYTFIDYYMNWVRQAPGKGLEWVGDINLDNSGTHYNQKFKGRFTISRDKSKNTAYLQMNSLRAEDTAVYYCAREGVYHDYDDYAMDYWGQGTLVTVSS VL: DIQMTQSPSSLSASVGDRVTITCRTSQSLVHINAITYLHWYQQKPGKAPKLLIYRVSNRFSGVPSRFSGSGSGTDFTLTISSLQPEDFATYYCGQSTHVPLTFGQGTKVEIK",apoptosis (AnnexinV/7AAD),[1],increased apoptosis
same,AnnexinV+ apoptotic cells,[2],increase in AnnexinV+
same,PARP1 and CASP3 cleavage,[3],increase in PARP1 and CASP3 cleavage

# Reference: US11702469B2, “Recombinant EGFL7, EGFL7 antibodies, and uses thereof” (Ohio State Innovation Foundation, priority 2017, dated 2023)
